Reference: patent US20240239878A1 (SHANGHAI QILU PHARMACEUTICAL RESEARCH AND DEVELOPMENT CENTRE, published 2024)

T1: human DLL3 antigen protein (Kactus Biosystems, Cat. No. DLL-HM103) (human, UniProt Q9NYJ7 27-492)
T1 sequence: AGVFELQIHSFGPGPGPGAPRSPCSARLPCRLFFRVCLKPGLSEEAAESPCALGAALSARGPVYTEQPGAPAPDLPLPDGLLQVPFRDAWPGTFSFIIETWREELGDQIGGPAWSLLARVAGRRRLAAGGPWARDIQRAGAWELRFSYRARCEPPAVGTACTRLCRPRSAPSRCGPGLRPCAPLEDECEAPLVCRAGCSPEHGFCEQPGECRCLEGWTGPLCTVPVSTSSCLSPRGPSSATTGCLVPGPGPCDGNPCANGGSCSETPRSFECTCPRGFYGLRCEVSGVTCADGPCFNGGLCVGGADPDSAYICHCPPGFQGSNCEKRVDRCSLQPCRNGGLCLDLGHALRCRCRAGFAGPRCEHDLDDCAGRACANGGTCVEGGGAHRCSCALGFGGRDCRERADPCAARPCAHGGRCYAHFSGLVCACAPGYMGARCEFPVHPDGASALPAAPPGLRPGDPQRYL

T2: human DLL3 on SHP-77 cells (human, UniProt Q9NYJ7 27-618)
T2 construct: also called DLL3-expressing cells (SHP-77)
T2 sequence: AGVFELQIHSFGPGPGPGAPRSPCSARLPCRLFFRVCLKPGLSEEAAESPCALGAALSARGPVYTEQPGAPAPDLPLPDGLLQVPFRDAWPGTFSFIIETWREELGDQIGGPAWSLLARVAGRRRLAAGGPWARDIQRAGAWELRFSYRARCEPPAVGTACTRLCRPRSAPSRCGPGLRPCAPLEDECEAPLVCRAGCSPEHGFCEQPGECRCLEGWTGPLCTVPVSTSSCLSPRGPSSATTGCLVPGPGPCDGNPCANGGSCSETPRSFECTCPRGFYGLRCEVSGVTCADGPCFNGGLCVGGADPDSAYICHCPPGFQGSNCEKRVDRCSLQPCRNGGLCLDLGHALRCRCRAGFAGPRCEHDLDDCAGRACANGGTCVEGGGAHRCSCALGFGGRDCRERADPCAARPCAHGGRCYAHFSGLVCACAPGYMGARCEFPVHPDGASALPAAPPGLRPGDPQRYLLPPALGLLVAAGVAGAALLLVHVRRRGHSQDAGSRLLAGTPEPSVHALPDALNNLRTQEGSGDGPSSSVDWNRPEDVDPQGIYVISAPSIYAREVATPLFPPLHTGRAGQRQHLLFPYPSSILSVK


How the values were obtained:
[1] = target: T1, human DLL3 antigen protein (Kactus …); assay: SPR (Biacore 8K), antibody captured on anti-human Fc, DLL3 in solution
Method: The affinity and kinetic properties of the humanized anti-DLL3 antibody to human DLL3 were analyzed using a Biacore 8K instrument. CM5 chips were activated with EDC and NHS, followed by immobilization of anti-human Fc murine mAb and blocked with ethanolamine.
Human DLL3 was diluted two-fold serially to serial concentrations (100 nM-0.39 nM) and associated for 90 s and dissociated for 600 s at a flow rate of 50 μL/min.
After completion of each cycle of the experiment, the captured antibody was removed together with the antigen by washing with a 3M MgCl₂ solution at a flow rate of 30 μL/min for 30 s to complete the regeneration of the chip. The raw data were analyzed using Biacore Insight Evaluation Software (3.0.12.15655) software and fitted with a (1:1) Langmuir model.

[2] = target: T2, human DLL3 on SHP-77 cells; assay: flow cytometry, SHP-77 cells
Method: SHP-77 and HEK293-cyno DLL3 cells were cultured. The culture medium for SHP-77 cells were RPMI1640+10% FBS, and the culture medium for HEK293 cyno DLL3 cells were DMEM+10% FBS+200 μg/ml Hygromycin. The cells were cultured in a T75 cell culture flask at a 37° C. 5% CO₂ incubator. When using cells, they are washed with sterile DPBS, digested with 0.25% trypsin EDTA for about 5 minutes, and then stopped with a complete medium.
The digested cells were centrifuged at 1000 rpm for 5 min at room temperature. The supernatant was discarded and the cells were resuspended in 100 μL of 1% BSA (in PBS). The cells were counted and adjusted to a cell density of 1E6/m. The dilute cells were seeded in a 96-well round-bottom culture plate (corning 3799), and centrifuged at 1500 rpm for 5 min at 4° C. The supernatant was discarded and the cells were stored at 4° C. until use. Antibody samples to be tested were diluted with 1% BSA (in PBS) at a starting concentration of 100 nM, downwards by a 10-fold gradient for 7 concentrations. The cells were resuspended with the diluted antibody at 100 μL/well and incubated for 1 hour at 4° C. The cells were centrifuged at 1500 rpm for 5 minutes at 4° C. and the supernatant was discarded. The cells were resuspended and washed with 160 μL of 1% BSA (in PBS), centrifuged at 1500 rpm for 5 minutes at 4° C. The supernatant was discarded. The secondary antibody (goat anti human IgG Fc PE) was diluted 1:200 with 1% BSA (in PBS) according to the manufacturer's instructions and the cells were resuspended with the diluted secondary antibody, 100 μL/well, and incubated for 0.5 h at 4° C. The cells were centrifuged at 1500 rpm for 5 minutes at 4° C. and the supernatant was discarded. The cells were resuspended and washed with 160 μL of 1% BSA (in PBS), centrifuged at 1500 rpm for 5 minutes at 4° C. The supernatant was discarded. The cells were resuspended in 100 μL of 1% BSA (in PBS), and filtered across a 300 mesh gauze. The mean fluorescence intensity of the PE channels was measured by flow cytometry.
The analyzed mean fluorescence intensity was imported into Graphpad to analyze the median-binding concentration (hereinafter referred to as EC50) of antibody and cell and the top mean fluorescence intensity (Top MFI).

Row | Kd [1] | koff [1] | kon [1] | EC50 [2] | Top MFI [2] | Binder
1 | 4.21 nM | 0.000392 s⁻¹ | 93200 M⁻¹ s⁻¹ | 0.478 nM | 877 MFI | DLL3-122 camelid-derived anti-DLL3 chimeric antibody (antibody, human IgG1, V domains shown) VH: QVQLVESGGGSVQAGGSLRLSCTASGDTYRSYCMGWFRKAPGKEREGVADIVSDGSTSYADSVKGRFTISKDNAKNTLYLQMNSLKPEDTAMYYCAVDRGGSGGYCYTGRYDYWGQGTQVTVSS
2 | 4.73 nM | 0.000466 s⁻¹ | 98500 M⁻¹ s⁻¹ | 0.589 nM | 778 MFI | hDLL3-122 camelid-derived humanized anti-DLL3 antibody (antibody, V domains shown) VH: EVQLVESGGGLVQPGGSLRLSCAASGDTYRSYCMGWFRQAPGKEREGVADIVSDGSTSYADSVKGRFTISRDNSKNTLYLQMNSLRAEDTAVYYCAVDRGGSGGYCYTGRYDYWGQGTLVTVSS
3 | 0.0322 nM | 1.23e-05 s⁻¹ | 382000 M⁻¹ s⁻¹ | 0.499 nM | 841 MFI | DLL3-26 camelid-derived anti-DLL3 chimeric antibody (antibody, human IgG1, V domains shown) VH: QVQLVESGGGSVQAGGSLRLSCAASGDIYSSSYVGWFRQAPGKEREGVAIIYTSGDSTYYANSVKGRFTISQDKAKKTLYLQMNSLKPEDTAMYYCAARFAIDNSNYWGQGTQVTVSS
4 | 1.69 nM | 0.000355 s⁻¹ | 210000 M⁻¹ s⁻¹ | 0.786 nM | 696 MFI | hDLL3-26 camelid-derived humanized anti-DLL3 antibody (antibody, V domains shown) VH: EVQLVESGGGLVQPGGSLRLSCAASGDIYSSSYVGWFRQAPGKEREGVAIIYTSGDSTYYADSVKGRFTISRDNSKNTLYLQMNSLRAEDTAVYYCAARFAIDNSNYWGQGTLVTVSS
5 | 0.127 nM | 0.000274 s⁻¹ | 2.15e+06 M⁻¹ s⁻¹ | 0.061 nM | 864 MFI | DLL3-3 camelid-derived anti-DLL3 chimeric antibody (antibody, human IgG1, V domains shown) VH: DVQLVESGGGSVQAGGSLKLSCKSPTYTISSGYMGWFRQAPGKEREGVAAIYIGGSTTLYADSVKGRFTISADNAEKTVYLQMNTLKPEDSAMYYCAAQLRPNSAYHPLDGRKYNYWGQGTQVTVSS
6 | 0.304 nM | 0.00058 s⁻¹ | 1.91e+06 M⁻¹ s⁻¹ | 0.086 nM | 702 MFI | hDLL3-3-1 camelid-derived humanized anti-DLL3 antibody (antibody, human IgG1, V domains shown) VH: EVQLVESGGGLVQPGGSLRLSCAASTYTISSGYMGWFRQAPGKEREGVAAIYIGGSTTLYADSVKGRFTISRDNSKNTLYLQMNSLRAEDTAVYYCAAQLRPNSAYHPLDGRKYNYWGQGTLVTVSS
7 | 0.399 nM | 0.000776 s⁻¹ | 1.95e+06 M⁻¹ s⁻¹ | 0.049 nM | 691 MFI | hDLL3-3-2 camelid-derived humanized anti-DLL3 antibody (antibody, V domains shown) VH: EVQLVESGGGLVQPGGSLRLSCKSPTYTISSGYMGWFRQAPGKEREGVAAIYIGGSTTLYADSVKGRFTISRDNSKNTLYLQMNSLRAEDTAVYYCAAQLRPNSAYHPLDGRKYNYWGQGTLVTVSS
